These results are taken from article PMC10199920, “Identification of a mycobacterial hydrazidase, an isoniazid-hydrolyzing enzyme” (Scientific Reports, 2023).

Common to all, as to assay type: biochemical, Mycolicibacterium smegmatis
Common to all, as to details: 50 mM sodium phosphate pH 7.0, 37 °C, 15 min

One data set has as its system NNC(=O)c1cccnc1. The data set can be described thus: colorimetric hydrazine formation (p-dimethylaminobenzaldehyde), Lineweaver-Burk. From the text:
(§1) colorimetric hydrazine formation (p-dimethylaminobenzaldehyde), Lineweaver-Burk on PzaA

The test system of the next data set is NNC(=O)c1ccncc1. Described as above.
Source text: as §1

The subject of a further data set is NC(=O)c1cccnc1. Description: colorimetric ammonia formation, Lineweaver-Burk. The source says:
(§2) colorimetric ammonia formation, Lineweaver-Burk on PzaA

The subject of another data set is NC(=O)c1ccncc1. The data set can be described thus: colorimetric ammonia formation, Lineweaver-Burk.
Source text: as §2

The next data set concerns NC(=O)c1cnccn1. The data set can be described thus: colorimetric ammonia formation, Lineweaver-Burk.
Source text: as §2

On to “PzaA (Mycolicibacterium smegmatis MC2 155)”, for which the Km in the data set on NNC(=O)c1cccnc1 is recorded as 1.26 (0.0475) mM; with NNC(=O)c1ccncc1, 1.20 (0.271) mM; in the data set on NC(=O)c1cccnc1, 0.0887 (0.0113) mM; with NC(=O)c1ccncc1 it was 0.145 (0.0203) mM; in the data set on NC(=O)c1cnccn1, 0.143 (0.0078) mM. Also, the Vmax (commonly the top rate of the reaction or transport when substrate is in excess) came out at 23.7 µmol/min/mg in the data set with NNC(=O)c1cccnc1; 1.51 µmol/min/mg with NNC(=O)c1ccncc1; 37.2 µmol/min/mg with NC(=O)c1cccnc1; 6.48 µmol/min/mg in the data set on NC(=O)c1ccncc1; 11.7 µmol/min/mg with NC(=O)c1cnccn1. In addition, the Vmax/Km worked out at 18800 µL/min/mg in the data set with NNC(=O)c1cccnc1; 1260 µL/min/mg in the data set on NNC(=O)c1ccncc1; 419000 µL/min/mg in the data set on NC(=O)c1cccnc1; 44700 µL/min/mg with NC(=O)c1ccncc1; 81800 µL/min/mg in the data set on NC(=O)c1cnccn1.
